The values that follow come from patent US20260308224A1, “METHODS AND COMPOSITIONS FOR DISPLAYING PEPTIDE LIBRARIES” (priority 2023, published 2026).

Experiment [1] addresses T1, DOR (Homo sapiens, UniProt P41143).
T1 construct: Gpa1 with human Gi3 C-terminal five residues; tethered peptide display
The experiment can be described thus: tethered peptide library sorting on GFP fluorescence with NGS. Type of experiment: cell-based. The following applies: metric: positive count. The source says: (§1) The first, henceforth referred to as library 1, site saturated the first four positions of the peptide, YGGF, using an NNK mutagenesis strategy (FIG. 5). This is canonically the “message” region, understood to be integral to opioid receptor signaling, with the tyrosine being particularly important. […] In creating this library, it was hoped that it could be determined how much variation is tolerated in this region, and how this might differ for opioid receptor sub-type.
(§2) The second library, library 2, saturated the latter four residues of the peptide, LRRI (FIG. 5). This “address” region is thought to confer receptor specificity, interacting with receptor residues further up the binding pocket (Metzger et al. 2001; Xue et al. 1994; Marie-Pepin et al. 1997), but can still be important for receptor activity. It was hypothesized that more variation would be tolerated in this region, including more sub-type specific variation.
(§3) Libraries were sorted twice on GFP fluorescence. Roughly 15 times the theoretical nucleotide complexity was sorted to ensure rare variants were assayed. […] After the second sorts, the genomes of the positive and negative populations were prepped and the library cassettes were sequenced in technical replicate using NGS at a depth of at least 1 million reads.
(§4) Several strategies were used to both identify unique binders for receptor sub-type and identify generally preferred residues and motifs. Log proportions between the positive and negative pools were determined with a filter of-11 (FIG. 6). […] Because the libraries were sorted twice, and the fraction of cells with a GFP signal small, strong signalers were expected to be present in relatively high numbers in the positive pool.
(§5) To incorporate both metrics, log proportions after a cut off of 500 nucleotide read counts were also determined (FIGS. 7 and 8).
(§6) Beyond identification of general motif trends, variants unique to individual receptors were determined. For a general idea of variant specificity, plots showing receptor specificity by the log proportion metric were generated (FIGS. 12 and 13). […] Logo plots of receptor-unique variants by this metric are highlighted in FIGS. 14 and 15. To account for the noise around potentially low count variants, log proportions between positive and negative pools were determined after filtering on a minimum variant read count of 500 in the positive and negative pools. Variants that were receptor unique by this metric are highlighted in the logo plots in FIGS. 16 and 17.
(§7) Peptide candidates for further analysis were determined by manually curating the three discussed methods (Table 1).
(§8) For cell sorting experiments, post-transformation outgrowths were grown overnight in SD-URA/His pH 5.8 media, and cultures were passaged the following day 1:25 to minimize dead and untransformed cells. The following day the saturated cultures were washed three times in SD-URA/His pH 7.1 100 mM MOPS media without a carbon source to minimize glucose carry-over. Cultures were then diluted 1:10 their initial volume in SD-URA/His pH. 7.1 100 mM MOPS 2% galactose 0.2% glucose media and grown for 24 hours. Cells were then resuspended in an equal volume of TE pH 8.0 and 14-15 million events were sorted using a SH800S Cell Sorter (Sony) on GFP fluorescence, gated for singlets. Cells were sorted into SD-His/URA pH 5.8 media with pen/strep and grown for two days post sorting. Cultures were again washed and induced with galactose and sorted via the same parameters into positive and negative pools and grown up for 2 days. Genome extractions were performed using a Zymo Yeast Star kit.

In the next experiment the target is T2, KOR (Homo sapiens, UniProt P41145).
T2 construct: Gpa1 with human Gi3 C-terminal five residues; tethered peptide display
The experiment is described as above. Type of experiment: cell-based. To be noted: metric: positive count.
Text: as §1, §2, §3, §4, §5, §6, §7, §8

A further experiment concerns the target T3, MOR (Homo sapiens, UniProt P35372).
T3 construct: Gpa1/Gi3 chimeric G alpha; exogenous or tethered peptides
The description is as above. Type of experiment: cell-based. The following applies: metric: positive count.
Text: as §1, §2, §3, §4, §5, §6, §7, §8

In another experiment the test system is human opioid receptors. The experiment can be described thus: tethered peptide orientations and controls, GFP reporter signaling in yeast. Format: cell-based. The following applies: pGal1, integrated; FIG. 20 (cholesterol-producing strain CJM263). Here is the method:
Due to the limited application and efficacy of activating human GPCRs via this strategy, several tethering orientations for the dynorphin peptides were attempted. Anchoring with Flo42 at both the N- and C-termini of the peptides was tried. Additionally, versions with and without a glycine-serine linker between the peptide and the Flo42 region were assayed (versions with linker, FIG. 19). To enable rapid screening, the tethered peptide cassette was expressed on a plasmid under the control of a constitutive promoter.
This optimized tethering orientation was then assayed in the context to be used for library peptide display. Expression was driven by a galactose-inducible promoter, pGal1, and the construct was integrated into the yeast genome. The inducible promoter was used to control the length of peptide expression and minimize potential for unwanted selection from long-term constitutive expression. Like the tethered peptide cassette, receptors were integrated into the genome to avoid downstream issues with variable plasmid copy number and sorting (Bean et al. 2022). […] It was decided to screen MOR with the peptide libraries to determine if there were any variations that could rescue function, with the hypothesis that the sequence space assayed would likely contain variants capable of activating the receptor. […]

The next experiment has as its system HsDOR. To be noted: previously tested in yeast (Uddin et al. 2016); cited from earlier work.
Experiment [2] addresses T1, DOR. The experiment can be described thus: tethered peptide agonist display, GFP reporter signaling in yeast. Type of experiment: cell-based. To be noted: individually cloned tethered isolates (FIG. 27). Here is the method:
Anchoring with Flo42 at both the N- and C-termini of the peptides was tried. Additionally, versions with and without a glycine-serine linker between the peptide and the Flo42 region were assayed (versions with linker, FIG. 19). To enable rapid screening, the tethered peptide cassette was expressed on a plasmid under the control of a constitutive promoter.
Expression was driven by a galactose-inducible promoter, pGal1, and the construct was integrated into the yeast genome. The inducible promoter was used to control the length of peptide expression and minimize potential for unwanted selection from long-term constitutive expression. Like the tethered peptide cassette, receptors were integrated into the genome to avoid downstream issues with variable plasmid copy number and sorting (Bean et al. 2022).
Plasmids were constructed using Golden Gate assembly of components from the Yeast Toolkit with some adaptations. Receptors were expressed on either 2μ URA3 backbones driven by the CCW12 promoter or integrated into the yeast genome using a URA3 auxotrophic marker and driven by the TDH3 promoter. Tethered peptide cassettes were expressed on either a Cen6 HIS3 backbone or integrated into the yeast genome using HIS3 auxotrophic markers and were driven by pHHF2 for plasmid-based expression, and pGal1 for integrated expression. Oligos were ordered as gblocks or single stranded DNA from IDT.

T2 sequence (P41145 whole entry): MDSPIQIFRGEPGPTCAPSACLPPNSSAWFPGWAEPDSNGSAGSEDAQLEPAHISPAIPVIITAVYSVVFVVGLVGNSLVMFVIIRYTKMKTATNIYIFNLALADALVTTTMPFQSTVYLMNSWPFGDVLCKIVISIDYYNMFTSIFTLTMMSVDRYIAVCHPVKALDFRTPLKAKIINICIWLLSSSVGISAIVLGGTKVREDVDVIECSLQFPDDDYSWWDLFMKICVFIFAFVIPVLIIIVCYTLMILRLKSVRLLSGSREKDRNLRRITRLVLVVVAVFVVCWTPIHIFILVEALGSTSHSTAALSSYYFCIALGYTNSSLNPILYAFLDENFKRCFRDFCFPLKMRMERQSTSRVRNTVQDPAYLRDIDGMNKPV
T1 sequence (P41143 whole entry): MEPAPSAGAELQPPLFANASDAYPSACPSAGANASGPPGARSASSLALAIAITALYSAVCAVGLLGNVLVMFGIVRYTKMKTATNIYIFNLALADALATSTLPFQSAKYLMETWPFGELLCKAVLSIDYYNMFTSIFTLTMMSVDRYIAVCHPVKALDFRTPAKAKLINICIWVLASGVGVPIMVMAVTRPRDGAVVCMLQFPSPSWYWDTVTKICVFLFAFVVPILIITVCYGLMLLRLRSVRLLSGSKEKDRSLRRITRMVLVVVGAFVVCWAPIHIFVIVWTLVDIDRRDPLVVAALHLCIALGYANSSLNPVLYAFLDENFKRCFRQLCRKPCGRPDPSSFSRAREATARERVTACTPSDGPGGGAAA
T3 sequence (P35372 whole entry): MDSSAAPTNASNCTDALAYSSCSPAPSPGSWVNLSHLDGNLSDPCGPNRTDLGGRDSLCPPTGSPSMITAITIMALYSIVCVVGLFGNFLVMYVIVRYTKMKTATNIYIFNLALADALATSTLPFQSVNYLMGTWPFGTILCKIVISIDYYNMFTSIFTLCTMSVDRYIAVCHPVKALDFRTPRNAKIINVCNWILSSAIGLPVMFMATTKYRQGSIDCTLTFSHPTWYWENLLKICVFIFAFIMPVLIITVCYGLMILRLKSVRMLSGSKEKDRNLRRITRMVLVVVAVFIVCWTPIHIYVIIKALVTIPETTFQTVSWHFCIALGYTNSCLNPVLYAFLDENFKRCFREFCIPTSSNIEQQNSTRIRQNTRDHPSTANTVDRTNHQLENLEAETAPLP

On to YGGFSSSG, for which, in the experiment with DOR [1] (library 2), the “top-performing motif unique for receptor” value is on record as “DOR”.
With YGGFYSRW, the “top-performing motif unique for receptor” value with KOR (library 2) is given as “KOR”.
On to YGGFGSGR, for which, in the experiment with DOR [1] (library 2), the “top-performing motif unique for receptor” value was “DOR”.
Consider SHYVLRRI, for which, in the experiment with KOR (library 1), the “top-performing motif unique for receptor” value was “KOR”.
YGGFYRLR: the “top-performing motif unique for receptor” value in the experiment with KOR (library 2) is given as “KOR”.
Turning to YGGFGGSG, in the experiment with DOR [1] (library 2), the “top-performing motif unique for receptor” value is given as “DOR”.
For the substance WWPDLRRI, in the experiment with DOR [1] (library 1), the “top-performing motif unique for receptor” value is reported as “DOR”.
CDIQLRRI: the “top-performing motif unique for receptor” value in the experiment with KOR (library 1) was “KOR”.
Regarding YGGFMVAT, the “top-performing motif unique for receptor” value with MOR (library 2) is “MOR”.
As to YGGFSSRG, the “top-performing motif unique for receptor” value with DOR [1] (library 2) is on record as “DOR”.
Regarding YGGFMGSV, the “top-performing motif unique for receptor” value with MOR (library 2) is given as “MOR”.
With YGGFRCCA, the “top-performing motif unique for receptor” value with MOR (library 2) is listed as “MOR”.
With SAWPLRRI, the “top-performing motif unique for receptor” value in the experiment with KOR (library 1) is recorded as “KOR”.
GLVNLRRI: the “top-performing motif unique for receptor” value with MOR (library 1) is given as “MOR”.
Take “GGGSGGGGSGGGSGGGGS [glycine-serine linker, glycine-serine linker, without peptide agonist, negative control]”: in the experiment on human opioid receptors, the “activity of negative controls” value is “no activity”.
For YGFDLRRI, the “top-performing motif unique for receptor” value with DOR [1] (library 1) is “DOR”.
On to LVLLLRRI, for which the “top-performing motif unique for receptor” value with MOR (library 1) is listed as “MOR”.
In the case of YGGFMNYP, the “top-performing motif unique for receptor” value in the experiment with MOR (library 2) is given as “MOR”.
As for dynorphin A 1-17, in the experiment on HsDOR, the activity entry is “showed activity”.
Regarding YGGFYSYA, the “top-performing motif unique for receptor” value with KOR (library 2) is “KOR”.
Regarding YGMELRRI, in the experiment with DOR [2], the “receptor specificity of individually cloned isolates” value is on record as “delta-specific” and the “signaling of individually cloned isolates” value is listed as “signaled strongly”. The “top-performing motif unique for receptor” value in the experiment with DOR [1] (library 1) is “DOR”.
On to YGGFSSGL, for which the “top-performing motif unique for receptor” value in the experiment with DOR [1] (library 2) is “DOR”.
YGFDLLRI: in the experiment with DOR [2], the “receptor specificity of individually cloned isolates” value is reported as “delta-specific” and the “signaling of individually cloned isolates” value was “signaled strongly”.
For SVPFLRRI, the “top-performing motif unique for receptor” value in the experiment with KOR (library 1) is listed as “KOR”.
For YQRFLRRI, the “top-performing motif unique for receptor” value with KOR (library 1) is “KOR”.
